T1: Yhr016c SH3 (YSC84_YEAST), P32793
T1 chain: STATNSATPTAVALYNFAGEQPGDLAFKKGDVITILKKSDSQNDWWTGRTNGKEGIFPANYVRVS

T2: Rvs167 SH3 (RV167_YEAST), P39743
T2 chain: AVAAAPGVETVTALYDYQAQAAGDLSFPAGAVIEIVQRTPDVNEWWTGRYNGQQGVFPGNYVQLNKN

T3: Boi1 SH3 (BOI1_YEAST), P38041
T3 chain: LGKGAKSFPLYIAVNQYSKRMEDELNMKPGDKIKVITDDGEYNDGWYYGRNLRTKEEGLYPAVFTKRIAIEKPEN

T4: Boi2 SH3 (BOI2_YEAST), P39969
T4 chain: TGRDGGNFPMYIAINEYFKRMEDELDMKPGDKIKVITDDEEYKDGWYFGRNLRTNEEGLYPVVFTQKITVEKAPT

T5: Yfr024 SH3 (LSB3_YEAST), P43603
T5 chain: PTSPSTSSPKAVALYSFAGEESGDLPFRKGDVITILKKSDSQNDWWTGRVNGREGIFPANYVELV

T6: Myo5 SH3 (MYO5_YEAST), Q04439
T6 chain: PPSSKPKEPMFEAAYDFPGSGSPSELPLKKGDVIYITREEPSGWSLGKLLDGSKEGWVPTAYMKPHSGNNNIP

Sequence of Sho1 SH3 (SHO1_YEAST), P40073 (P40073 295-366): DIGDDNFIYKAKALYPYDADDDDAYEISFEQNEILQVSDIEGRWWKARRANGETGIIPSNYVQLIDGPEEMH

The first test has as its target T1, Yhr016c SH3 (YSC84_YEAST), P32793. Briefly: SPOT array.
FKVYRWNPDEPSAK [YLL041C 36-49] yielded a normalised SPOT signal, Boehringer light units (BLU); mean over the file's lines of this peptide of 29.3.
Same read-out and setting: under FEYSKYRPLTPSSE [YOR001W 401-414] stands 288; under FFYRRDIPDVPITT [YDR310C 827-840], 362; under FLQDRVIPIFPHYP [YMR283C 55-68], 26.6.
The same measure, in the same setting: the same measure for FGSNKNNPVPPELT [YIL125W 149-162]: 37.5; for FGTAKILPEEPSNT [YDR490C 268-281]: 30.3; for FHDPKFIPNKPYRQ [YGR019W 335-348]: 113.

For a further test, the target named is T2, Rvs167 SH3 (RV167_YEAST), P39743. Description: SPOT array.
On to FKVYRWNPDEPSAK [YLL041C 36-49], for which the normalised SPOT signal, Boehringer light units (BLU); mean over the file's lines of this peptide was found to be 99.4.
The same measure, in the same setting: the same measure for FEYSKYRPLTPSSE [YOR001W 401-414]: 436; for FFYRRDIPDVPITT [YDR310C 827-840]: 253.
The same measure, in the same setting: the same measure for FLQDRVIPIFPHYP [YMR283C 55-68]: 72.9; for FGSNKNNPVPPELT [YIL125W 149-162]: 27.1; for FGTAKILPEEPSNT [YDR490C 268-281]: 23.2.
The same measure, in the same setting: under FHDPKFIPNKPYRQ [YGR019W 335-348] stands 28.7.

The target in another test is T3, Boi1 SH3 (BOI1_YEAST), P38041. Description: SPOT array.
On to FKVYRWNPDEPSAK [YLL041C 36-49], for which the normalised SPOT signal, Boehringer light units (BLU); mean over the file's lines of this peptide was 892.
Same read-out and setting: the same measure for FEYSKYRPLTPSSE [YOR001W 401-414]: 73.8.
Still for that read-out and setting: the same measure for FFYRRDIPDVPITT [YDR310C 827-840]: 15400; for FLQDRVIPIFPHYP [YMR283C 55-68]: 102.
Still for that read-out and setting: the same measure for FGSNKNNPVPPELT [YIL125W 149-162]: 58.8.
For FGTAKILPEEPSNT [YDR490C 268-281], the normalised SPOT signal, Boehringer light units (BLU); mean over the file's lines of this peptide was determined as 35.5.
FHDPKFIPNKPYRQ [YGR019W 335-348] had a normalised SPOT signal, Boehringer light units (BLU); mean over the file's lines of this peptide of 518.

A further test addresses T4, Boi2 SH3 (BOI2_YEAST), P39969. Briefly: SPOT array.
Regarding FKVYRWNPDEPSAK [YLL041C 36-49], the normalised SPOT signal, Boehringer light units (BLU); mean over the file's lines of this peptide was determined as 28.9.
FEYSKYRPLTPSSE [YOR001W 401-414] registered a normalised SPOT signal, Boehringer light units (BLU); mean over the file's lines of this peptide of 111.
In turn, FFYRRDIPDVPITT [YDR310C 827-840] showed a normalised SPOT signal, Boehringer light units (BLU); mean over the file's lines of this peptide of 33.9.
On the same count and under the same terms, under FLQDRVIPIFPHYP [YMR283C 55-68] stands 1.2.
Same read-out and setting: the same measure for FGSNKNNPVPPELT [YIL125W 149-162]: 13.4; for FGTAKILPEEPSNT [YDR490C 268-281]: 7.7.
For FHDPKFIPNKPYRQ [YGR019W 335-348], the normalised SPOT signal, Boehringer light units (BLU); mean over the file's lines of this peptide was 16.3.

In the next test the target is T5, Yfr024 SH3 (LSB3_YEAST), P43603. Briefly: SPOT array.
In turn, FKVYRWNPDEPSAK [YLL041C 36-49] had a normalised SPOT signal, Boehringer light units (BLU); mean over the file's lines of this peptide of 154.
FEYSKYRPLTPSSE [YOR001W 401-414] returned a normalised SPOT signal, Boehringer light units (BLU); mean over the file's lines of this peptide of 485.
The same measure, in the same setting: under FFYRRDIPDVPITT [YDR310C 827-840] stands 838; under FLQDRVIPIFPHYP [YMR283C 55-68], 173; under FGSNKNNPVPPELT [YIL125W 149-162], 70.
Regarding FGTAKILPEEPSNT [YDR490C 268-281], the normalised SPOT signal, Boehringer light units (BLU); mean over the file's lines of this peptide turned out to be 0.1.
On the same count and under the same terms, the same measure for FHDPKFIPNKPYRQ [YGR019W 335-348]: 498.

A further test deals with T6, Myo5 SH3 (MYO5_YEAST), Q04439. Description: SPOT array.
The molecule FKVYRWNPDEPSAK [YLL041C 36-49] displayed a normalised SPOT signal, Boehringer light units (BLU); mean over the file's lines of this peptide of 99.
Still for that read-out and setting: the same measure for FEYSKYRPLTPSSE [YOR001W 401-414]: 143.
FFYRRDIPDVPITT [YDR310C 827-840]: the normalised SPOT signal, Boehringer light units (BLU); mean over the file's lines of this peptide worked out at 138.
The same measure, in the same setting: under FLQDRVIPIFPHYP [YMR283C 55-68] stands 261; under FGSNKNNPVPPELT [YIL125W 149-162], 172; under FGTAKILPEEPSNT [YDR490C 268-281], 153.
Same read-out and setting: the same measure for FHDPKFIPNKPYRQ [YGR019W 335-348]: 300.

Another test concerns the target Sho1 SH3 (SHO1_YEAST), P40073. Description: SPOT array.
Molecule FKVYRWNPDEPSAK [YLL041C 36-49] gave a normalised SPOT signal, Boehringer light units (BLU); mean over the file's lines of this peptide of 75.1.
Same read-out and setting: the same measure for FEYSKYRPLTPSSE [YOR001W 401-414]: 114; for FFYRRDIPDVPITT [YDR310C 827-840]: 839; for FLQDRVIPIFPHYP [YMR283C 55-68]: 4.9.
Still for that read-out and setting: under FGSNKNNPVPPELT [YIL125W 149-162] stands 30.7; under FGTAKILPEEPSNT [YDR490C 268-281], 183.
As for FHDPKFIPNKPYRQ [YGR019W 335-348], the normalised SPOT signal, Boehringer light units (BLU); mean over the file's lines of this peptide was 122.

The values above are taken from paper PMC314469, “Protein Interaction Networks by Proteome Peptide Scanning” (PLoS Biology, 2004).
